# The RNAGym collection of RNA variant scans (doi:10.1073/pnas.2313332121)
# B1: TPR t1 (parent)
# chain: GACCAAUCUGCCCUCAGAGCUCGAGAACAUCUUCGGAUGCAGAGGAGGCAGGCUUCGGUGGCGCGAUAGCGCCAACGUCCUCAACCUCCAAUGCAUCCCACCACAUGAUGAUGCCUGAAGAGCCUUGGUUUUUUG
# Variants of: B1
# Assay: polymerase ribozyme fitness, log enrichment relative to wild type (log ratio); higher = more active; in vitro selection for triplet polymerase activity
# Method in brief: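 Mutant libraries for each subunit of a heterodimeric triplet polymerase ribozyme were made by PCR and then transcribed. Each library underwent one round of in vitro selection in triplicate: annealing with a biotinylated primer, the partner subunit and triplets, frozen incubation at −7 °C, gel excision of extended constructs, streptavidin-bead capture and RT-PCR. Input and output libraries were Illumina-sequenced, and only genotypes with ≥10 input reads and ≥1 read per output were kept. Fitness is the logarithm, base 2, of genotype enrichment over wild-type enrichment, computed from inverse-variance-weighted replicate averages.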
row,Variant,polymerase ribozyme fitness (log ratio)
1,U87A C102A,-2.11
2,A43U U112G,-1.93
3,U7C A16G C20U G120U,-2.78
4,C8U C15U G45C A50U,-1.64
5,G69U G113C,-0.897
6,G39C A111C G113A,-3.44
7,A43C C49G,-3.17
8,G47U C70G,-6.87
9,A43U G45A G58C,-1.24
10,A43U G120C U132A,0.0679
11,A5G G35A U78A C101U,-3.77
12,A46G G107A,-4.88
13,C73A C94U,0.44
14,C40G U87G,-1.6
15,C114U G127U,-3.69
16,U55G C73A,0.256
17,G48A A95G U116G,-1.38
18,G47C C70A U131G,-4.27
19,C15A C70G,-3.97
20,G48A C115A,-1.47
21,C79A,-1.04
22,C11A G71U A91G A121U,0.632
23,C11A C22G G48A C72G A119G,-4.64
24,U32C C49G C73G C88G A95C,-5.8

row,Variant,polymerase ribozyme fitness (log ratio)
1,G69U C99A G127C,-3.98
2,C11G C22U G113U A119G,-5.79
3,C82G C89A,-2.23
4,C15U A37G C53G U129C,-2.67
5,G19U G71A,-3.31
6,C13G U14G C15A G71A G122A,-4.63
7,C15A A29C U78A,-4.3
8,C12A G19U G23U G47A G52C G69U G110C,-7.34
9,C70G U116A,-4.95
10,G17U C34A G63A C79U C115A,-3.37
11,A41U G110A A121C G122A G128U,-5.21
12,C15G C53G C56G G61A,-3.41
13,C53G G71A,-1.22
14,A2U A50C C56U G57U A91U C124G G127C G128C,-4.54
15,G69U C73U G110A C123A,-0.661
16,G36A A46U G57U C104U,-1.52
17,G10U C12U A43U A118U,-0.927
18,A41C G57C A90G C97A,-4.54
19,G48U A95U G117U,-3.3
20,C20U C22A A50C G69U,-2.32
21,G63U U106G,-3.21
22,U59G C72U C86A,-2.04
23,C86U U112G,0.18
24,A18C C56A,-3.08

row,Variant,polymerase ribozyme fitness (log ratio)
1,G44C C72U A75C U92G,-2.94
2,C12U A75U,0.0801
3,G17U C82G,-2.98
4,G42U C115U,-1.27
5,A5U G39A C73A U78C,-0.828
6,C49A A50G,-1.27
7,U92G U125A,-2.96
8,U59A C62G U87A U129C U130G,-4.15
9,G69U G71C,-2.52
10,G71U C94G,-1.13
11,G48U U134G,-0.783
12,A6U C8G G44C C64U U96C,-1.02
13,C20A G77A G135U,-3.74
14,G117U U126G,-5.92
15,C31U U129G,-5.03
16,C79A C94A G117U,-4.86
17,A50U C62A C82A,-1.33
18,C104A C123G,-0.779
19,G19C C62G C115U,-4.26
20,C70U G135A,-1.42
21,A5U C11G A91G,-0.601
22,C4U G48A G71U U106A,-1.2
23,C8A U30A A46C U106C C123U,-5.15
24,C62U U109C,-4

row,Variant,polymerase ribozyme fitness (log ratio)
1,G57C U78C,0.0872
2,C49A G93U U112G,-1.59
3,A46G C82U U106A,-0.902
4,A26C U54G A103C A105U U112C,-6.86
5,C73U G113C,-1.54
6,U14C G71C,-2.35
7,G71A U112A,0.323
8,A6U G117U,-2.79
9,C12G A18C C88U,-2.16
10,C56G G113C U133G,-2.55
11,G42A U129G,-2.39
12,A5U C12G C89U A103C G117U,-6.59
13,U9A C104A,-0.737
14,G10C C40G C56G G61A A68U G77U U112C,-6.74
15,C3A A75G A111G A118G U129C,-1.7
16,C11U A43U A84U U112A G128C,-3.29
17,C40G C114U C123U,-4.09
18,A26U A50U G57C,-4.64
19,C56U C72G C88A,-3.53
20,A5U U9A U32C A37U C49U G69A G93A,-4.95
21,G61A G135U,-0.801
22,G19C C79A C89A,-4.61
23,A50C A75G A95C C123U,0.24
24,C82A C102A C114U,-4.27

row,Variant,polymerase ribozyme fitness (log ratio)
1,C13G G69A C124A G128A,-4.44
2,A6G G69U C115A G120A,0.502
3,C49G C123G,1.3
4,C22U C86G A100C A121U,-4.27
5,A37U C56A,-1.32
6,C20U G42U C56A C115G,-3.91
7,A18U G63C C64U C97G G117A,-6.33
8,C12U G110C,-2.23
9,C12U G42A A90G G128U,-2.7
10,C49G C80U C85G,-2.11
11,G63A A95C,-2.22
12,C76G C89U,-0.321
13,C56A A108G G117U,-3.81
14,C20U G93A C101G G113C,-4.09
15,C8U U55C C73A C76G A121U,1.02
16,U112G A121U,0.924
17,C11U C104U,-1.3
18,G39U A46G,-1.02
19,C11A C13A C40U,-3.65
20,G52C C123G U133G,0.949
21,G10U G42U C89U,-1.96
22,G47A A50U C80A C88U A111G,-4.88
23,A46G A121U U126A,0.577
24,A90C A121C,0.757

row,Variant,polymerase ribozyme fitness (log ratio)
1,A18C U59A C89U G122A,-3.38
2,U14G A50C G63C C94A,-3.63
3,C40G U55G C62U U78G,-2.04
4,A6U G61A,-0.0423
5,G17A G52U,-4.1
6,C8U A16U G36C G52U C97A,-2.9
7,C12U A37C A46U,-1.38
8,U54C C73A A121U,2.33
9,G44A G63U,-1.78
10,G71U A83U C99A A105C C123U,-7.02
11,G10C C40G,-1.34
12,C20U C70U C88A U106C,-2.34
13,G48U G71U C114U,-3.21
14,A2G C8G A43G G69C C98A C123A,-7.53
15,G69U C88A,0.231
16,C56G C72G C82A C114U,-4.76
17,C62A A66U C73U A95C C123U,-5.94
18,C85G C89U G110U,-2.09
19,G69C U92G,-4.02
20,U7G G10U C15A U54A C104A,-3.26
21,C13U G63A C101U,-0.511
22,U38G C79U C97U,-5.59
23,A50U G61U U126G,-2.73
24,U14A G36U A46C A91U C114G A121U G122A,-5.85

row,Variant,polymerase ribozyme fitness (log ratio)
1,A5U A46U C73A A90U C123A,-1.41
2,G71A G113A,-1.22
3,C34G G47C C104A C124A,-5.21
4,C13U C94U A95C,-1.52
5,C56U A121C,1.68
6,C40A C56G U87G A95U C101A C124A U133C,-5.07
7,C49G C70U C85G A105U,-3.38
8,G39A U92A,-3.56
9,A29C G44U C73G C82G U112C C115G,-7.14
10,G17C C28U C85A G110A G120C,-2.19
11,A66C C124U,0.285
12,C13U G19C C70U,-2.89
13,A6G C102A,-1.96
14,G19A C123U,-2.48
15,G17C A29U,-6.04
16,U55C G57A U106A G110U C123U,-3.04
17,C8G G60C A66C U131G,-3.98
18,C20U A43U C53G,-2.28
19,G63U U67A,-6.27
20,C70A U126G,-3.42
21,C15A U92G,-4.55
22,C3U C53A G71A U78A,-0.343
23,G48A C97A U112C,-2.48
